Laboratory results from paper PMC7954794 (2021).

B1: S. cerevisiae Abp1 (full length; SH3 domain 535-592 mutated) / Hua2 (parent complex)
chain 1: MALEPIDYTTHSREIDAEYLKIVRGSDPDTTWLIISPNAKKEYEPESTGSSFHDFLQLFDETKVQYGLARVSPPGSDVEKIIIIGWCPDSAPLKTRASFAANFAAVANNLFKGYHVQVTARDEDDLDENELLMKISNAAGARYSIQTSSKQQGKASTPPVKKSFTPSKSPAPVSKKEPVKTPSPAPAAKISSRVNDNNDDDDWNEPELKERDFDQAPLKPNQSSYKPIGKIDLQKVIAEEKAKEDPRLVQKPTAAGSKIDPSSDIANLKNESKLKRDSEFNSFLGTTKPPSMTESSLKNDDDKVIKGFRNEKSPAQLWAERKAKQNSGNAETKAEAPKPEVPEDEPEGEPDVKDLKSKFEGLAASEKEEEEMENKFAPPPKKSEPTIISPKPFSKPQEPVKAEEAEQPKTDYKKIGNPLPGMHIEADNEEEPEENDDDWDDDEDEAAQPPLPSRNVASGAPVQKEEPEQEEIAPSLPSRNSIPAPKQEEAPEQAPEEEIEEEAEEAAPQLPSRSSAAPPPPPRRATPEKKPKENPWATAEYDYDAAEDNELTFVENDKIINIEFVDDDWWLGELEKDGSKGLFPSNYVSLGN
chain 2: MQQTKFGKMYLDHDSVVEYSEDEIVEADRITLGYKKRLSMIENQMRHLLEDFSLDVQQIEPILADLQKYYDAFLQLLQKRNKSLQCKRSTHQPVPSPMNSQTSTNAKVNLSGKLMKFQLNSVQKFDEENILRILQNKIEFEHYFQIDKGKKQKVLLLAVYQCLNGPTRLHKVLNIEGIIHNNSIRTILGKQVSSSKWTVFLYDVKLVLLAHRQDVPNLETSKMIVRYGDLFPCALYFKDHTAY

Variants of: B1
Assay: DHFR protein-fragment complementation in yeast (Abp1-DHFR F[1,2] x partner-DHFR F[3]), deep mutational scanning, second methotrexate selection vs reference; S. cerevisiae, DHFR-PCA selection in liquid with methotrexate at 30 C, two 72 h selections (the score uses the second); reference = the pre-selection culture

Variant | screen value
chain 1 MALEPIDYTTHSREIDAEYLKIVRGSDPDTTWLIISPNAKKEYEPESTGSSFHDFLQLFDETKVQYGLARVSPPGSDVEKIIIIGWCPDSAPLKTRASFAANFAAVANNLFKGYHVQVTARDEDDLDENELLMKISNAAGARYSIQTSSKQQGKASTPPVKKSFTPSKSPAPVSKKEPVKTPSPAPAAKISSRVNDNNDDDDWNEPELKERDFDQAPLKPNQSSYKPIGKIDLQKVIAEEKAKEDPRLVQKPTAAGSKIDPSSDIANLKNESKLKRDSEFNSFLGTTKPPSMTESSLKNDDDKVIKGFRNEKSPAQLWAERKAKQNSGNAETKAEAPKPEVPEDEPEGEPDVKDLKSKFEGLAASEKEEEEMENKFAPPPKKSEPTIISPKPFSKPQEPVKAEEAEQPKTDYKKIGNPLPGMHIEADNEEEPEENDDDWDDDEDEAAQPPLPSRNVASGAPVQKEEPEQEEIAPSLPSRNSIPAPKQEEAPEQAPEEEIEEEAEEAAPQLPSRSSAAPPPPPRRATPEKKPKENPWATAEYDYDAAEDNELTFVENDKIINIEFVNDDWWLGELEKDGSKGLFPSNYVSLGN [chain 1 D566N] | -1.27 DMS score: mean over two replicates of log2(f_test/f_ref + 0.5)/ln 2, minus the synonymous-codon median (not a log2 …
chain 1 MALEPIDYTTHSREIDAEYLKIVRGSDPDTTWLIISPNAKKEYEPESTGSSFHDFLQLFDETKVQYGLARVSPPGSDVEKIIIIGWCPDSAPLKTRASFAANFAAVANNLFKGYHVQVTARDEDDLDENELLMKISNAAGARYSIQTSSKQQGKASTPPVKKSFTPSKSPAPVSKKEPVKTPSPAPAAKISSRVNDNNDDDDWNEPELKERDFDQAPLKPNQSSYKPIGKIDLQKVIAEEKAKEDPRLVQKPTAAGSKIDPSSDIANLKNESKLKRDSEFNSFLGTTKPPSMTESSLKNDDDKVIKGFRNEKSPAQLWAERKAKQNSGNAETKAEAPKPEVPEDEPEGEPDVKDLKSKFEGLAASEKEEEEMENKFAPPPKKSEPTIISPKPFSKPQEPVKAEEAEQPKTDYKKIGNPLPGMHIEADNEEEPEENDDDWDDDEDEAAQPPLPSRNVASGAPVQKEEPEQEEIAPSLPSRNSIPAPKQEEAPEQAPEEEIEEEAEEAAPQLPSRSSAAPPPPPRRATPEKKPKENPWATAEYDYDAAEDNELTFVENDKIINIEFVDDDWWLGELEEDGSKGLFPSNYVSLGN [chain 1 K576E] | -0.947 DMS score: mean over two replicates of log2(f_test/f_ref + 0.5)/ln 2, minus the synonymous-codon median (not a log2 …
chain 1 MALEPIDYTTHSREIDAEYLKIVRGSDPDTTWLIISPNAKKEYEPESTGSSFHDFLQLFDETKVQYGLARVSPPGSDVEKIIIIGWCPDSAPLKTRASFAANFAAVANNLFKGYHVQVTARDEDDLDENELLMKISNAAGARYSIQTSSKQQGKASTPPVKKSFTPSKSPAPVSKKEPVKTPSPAPAAKISSRVNDNNDDDDWNEPELKERDFDQAPLKPNQSSYKPIGKIDLQKVIAEEKAKEDPRLVQKPTAAGSKIDPSSDIANLKNESKLKRDSEFNSFLGTTKPPSMTESSLKNDDDKVIKGFRNEKSPAQLWAERKAKQNSGNAETKAEAPKPEVPEDEPEGEPDVKDLKSKFEGLAASEKEEEEMENKFAPPPKKSEPTIISPKPFSKPQEPVKAEEAEQPKTDYKKIGNPLPGMHIEADNEEEPEENDDDWDDDEDEAAQPPLPSRNVASGAPVQKEEPEQEEIAPSLPSRNSIPAPKQEEAPEQAPEEEIEEEAEEAAPQLPSRSSAAPPPPPRRATPEKKPKENPWATAEYDYDAAEDWELTFVENDKIINIEFVDDDWWLGELEKDGSKGLFPSNYVSLGN [chain 1 N549W] | -2.49 DMS score: mean over two replicates of log2(f_test/f_ref + 0.5)/ln 2, minus the synonymous-codon median (not a log2 …

Second part, the variant after the results:

screen value | Variant
-0.0573 DMS score: mean over two replicates of log2(f_test/f_ref + 0.5)/ln 2, minus the synonymous-codon median (not a log2 … | chain 1 MALEPIDYTTHSREIDAEYLKIVRGSDPDTTWLIISPNAKKEYEPESTGSSFHDFLQLFDETKVQYGLARVSPPGSDVEKIIIIGWCPDSAPLKTRASFAANFAAVANNLFKGYHVQVTARDEDDLDENELLMKISNAAGARYSIQTSSKQQGKASTPPVKKSFTPSKSPAPVSKKEPVKTPSPAPAAKISSRVNDNNDDDDWNEPELKERDFDQAPLKPNQSSYKPIGKIDLQKVIAEEKAKEDPRLVQKPTAAGSKIDPSSDIANLKNESKLKRDSEFNSFLGTTKPPSMTESSLKNDDDKVIKGFRNEKSPAQLWAERKAKQNSGNAETKAEAPKPEVPEDEPEGEPDVKDLKSKFEGLAASEKEEEEMENKFAPPPKKSEPTIISPKPFSKPQEPVKAEEAEQPKTDYKKIGNPLPGMHIEADNEEEPEENDDDWDDDEDEAAQPPLPSRNVASGAPVQKEEPEQEEIAPSLPSRNSIPAPKQEEAPEQAPEEEIEEEAEEAAPQLPSRSSAAPPPPPRRATPEKKPKENPWATAEYDYDAAEDNELTFVENDKIINIEFVDDDWWLGELEKDGSKGLFPSPYVSLGN [chain 1 N586P]
2.45 DMS score: mean over two replicates of log2(f_test/f_ref + 0.5)/ln 2, minus the synonymous-codon median (not a log2 … | chain 1 MALEPIDYTTHSREIDAEYLKIVRGSDPDTTWLIISPNAKKEYEPESTGSSFHDFLQLFDETKVQYGLARVSPPGSDVEKIIIIGWCPDSAPLKTRASFAANFAAVANNLFKGYHVQVTARDEDDLDENELLMKISNAAGARYSIQTSSKQQGKASTPPVKKSFTPSKSPAPVSKKEPVKTPSPAPAAKISSRVNDNNDDDDWNEPELKERDFDQAPLKPNQSSYKPIGKIDLQKVIAEEKAKEDPRLVQKPTAAGSKIDPSSDIANLKNESKLKRDSEFNSFLGTTKPPSMTESSLKNDDDKVIKGFRNEKSPAQLWAERKAKQNSGNAETKAEAPKPEVPEDEPEGEPDVKDLKSKFEGLAASEKEEEEMENKFAPPPKKSEPTIISPKPFSKPQEPVKAEEAEQPKTDYKKIGNPLPGMHIEADNEEEPEENDDDWDDDEDEAAQPPLPSRNVASGAPVQKEEPEQEEIAPSLPSRNSIPAPKQEEAPEQAPEEEIEEEAEEAAPQLPSRSSAAPPPPPRRATPEKKPKENPWATAEYDYDAAEDNELTFVENDKIINIEFVDDDWWLGELEKDGSKGLFPSMYVSLGN [chain 1 N586M]
